According to patent publication US20260176621A1, “Metabolically Stabilized Carbohydrate Targeting Ligands For Oligonucleotide Conjugates” (Arrowhead Pharmaceuticals, Inc., priority 2023, published 2026):
Several values for one entry are separate records, joined by “and”; a condition that tells them apart may be missing. Equal entries are not always repeated.

B1: AD14216: multimeric (dimer) FXII-ANGPTL3 RNAi agent conjugate with NAG37s ligand, not metabolically stabilized, SEQ ID NO 5-7 (nucleic acid)
chain 1: UUCAAAGCACUUUAUUGAG
chain 2: UUGAGUUGAGUUCAAGUGA
chain 3: UCACUUGAACUCAACUCAACUCAAUAAAGUGCUUUGAA
modifications: NAG37s ligand conjugate; modified_base 1 OTHER; 5'-cyclopropyl phosphonate-2'-O-methyluridine; modified_base 1^2 OTHER; phosphorothioate linkage; modified_base 2 OTHER; 2'-fluorouridine; modified_base 2^3 OTHER; modified_base 3 cm; modified_base 3^4 OTHER; modified_base 4 OTHER; 2'-fluoroadenosine; modified_base 5 OTHER; 2'-O-methyladenosine; modified_base 6 OTHER; 2'-fl; phosphoro
B2: AD14218: multimeric (dimer) FXII-ANGPTL3 RNAi agent conjugate with metabolically stabilized NAG52s ligand, SEQ ID NO 11-13 (nucleic acid)
chain 1: UUCAAAGCACUUUAUUGAG
chain 2: UUGAGUUGAGUUCAAGUGA
chain 3: B1 chain 3
modifications: NAG52s ligand conjugate; modified_base 1 OTHER; 5'-cyclopropyl phosphonate-2'-O-methyluridine; modified_base 1^2 OTHER; phosphorothioate linkage; modified_base 2 OTHER; 2'-fluorouridine; modified_base 2^3 OTHER; modified_base 3 cm; modified_base 3^4 OTHER; modified_base 4 OTHER; 2'-fluoroadenosine; modified_base 5 OTHER; 2'-O-methyladenosine; modified_base 6 OTHER; 2'-fl; phosphoro
B3: AD14217: multimeric (dimer) FXII-ANGPTL3 RNAi agent conjugate with metabolically stabilized NAG42s ligand, SEQ ID NO 8-10 (nucleic acid)
chain 1: UUCAAAGCACUUUAUUGAG
chain 2: UUGAGUUGAGUUCAAGUGA
chain 3: B1 chain 3
modifications: NAG42s ligand conjugate; modified_base 1 OTHER; 5'-cyclopropyl phosphonate-2'-O-methyluridine; modified_base 1^2 OTHER; phosphorothioate linkage; modified_base 2 OTHER; 2'-fluorouridine; modified_base 2^3 OTHER; modified_base 3 cm; modified_base 3^4 OTHER; modified_base 4 OTHER; 2'-fluoroadenosine; modified_base 5 OTHER; 2'-O-methyladenosine; modified_base 6 OTHER; 2'-fl; phosphoro

Key:
ANGPTL3 = assay: Serum ANGPTL3 protein by ELISA after single SC dose in cynomolgus monkeys (Example 4); format: in vivo, cynomolgus macaque (Macaca fascicularis); design: key to Avg cANGPTL3 normalized to pre-treatment and control: ratio to animal's pre-dose geometric mean, then to saline group mean
Experimental: (§1) Multimeric (dimer) RNAi agent conjugates that included metabolically stabilized NAG targeting ligands were evaluated for gene silencing activity in cynomolgus macaque (Macaca fascicularis) primates (referred to herein as “cynos”). Each of the multimeric RNAi agent conjugates evaluated included one RNAi agent of the conjugate having sufficient complementarity with the mouse Angiopoietin-like 3 (ANGPTL3) gene transcript, and a second RNAi agent having sufficient complementarity with the mouse Factor 12 (FXII) gene transcript. As discussed in more detail below, both FXII and ANGPTL3 gene expression levels were assessed.
(§2) At day 1, male cynos were given a single subcutaneous administration of 0.3 mL/kg animal weight (20 mg/mL concentration) containing 6.0 mg/kg (mpk) of a multimeric RNAi agent conjugate formulated in isotonic saline, or 3.0 mg/kg of two separate RNAi conjugates, according to the following Table 3.
(§3) Three (3) cynos were dosed in each Group (n=3). Serum samples were taken on days −14, −7, and day 1 (pre-dose). Serum was then collected on days 8, 15, 22, 29, 36 43, 50, 57, 64, 71, 78, 98, 106, 120, 133, 148, and 162.
(§4) ANGPTL3 protein levels in serum were measured by ELISA assay (R&D Systems), according to the manufacturer's recommendations. FXII protein levels in serum were measured by ELISA assay (R&D Systems), according to the manufacturer's recommendations. The ANGPTL3 protein levels and FXII protein levels for each animal were normalized. For normalization, the level of ANGPTL3 protein or FXII protein, respectively, for each animal at a time point, was divided by the geometric mean of pre-treatment level of expression in that animal (in this case at days −14, −7 and 1 (pre-dose)) to determine the ratio of expression “normalized to pre-treatment.” Expression at a specific time point was then normalized to the saline control group by dividing the “normalized to pre-treatment” ratio for an individual animal by the mean “normalized to pretreatment” ratio of all […] in the saline control group.

FXII = assay: Serum FXII protein by ELISA after single SC dose in cynomolgus monkeys (Example 4); format: in vivo, cynomolgus macaque (Macaca fascicularis); design: key to Avg cFXII normalized to pre-treatment and control: ratio to animal's pre-dose geometric mean, then to saline group mean
Experimental: as §1, §2, §3, §4

[1] = Day 8, single SC dose day 1, 6.0 mg/kg (Group 1: 3.0+3.0 mg/kg)
[2] = Day 15, single SC dose day 1, 6.0 mg/kg (Group 1: 3.0+3.0 mg/kg)
[3] = Day 22, single SC dose day 1, 6.0 mg/kg (Group 1: 3.0+3.0 mg/kg)
[4] = Day 29, single SC dose day 1, 6.0 mg/kg (Group 1: 3.0+3.0 mg/kg)
[5] = Day 36, single SC dose day 1, 6.0 mg/kg (Group 1: 3.0+3.0 mg/kg)
[6] = Day 43, single SC dose day 1, 6.0 mg/kg (Group 1: 3.0+3.0 mg/kg)
[7] = Day 50, single SC dose day 1, 6.0 mg/kg (Group 1: 3.0+3.0 mg/kg)
[8] = Day 57, single SC dose day 1, 6.0 mg/kg (Group 1: 3.0+3.0 mg/kg)
[9] = Day 64, single SC dose day 1, 6.0 mg/kg (Group 1: 3.0+3.0 mg/kg)
[10] = Day 71, single SC dose day 1, 6.0 mg/kg (Group 1: 3.0+3.0 mg/kg)
[11] = Day 78, single SC dose day 1, 6.0 mg/kg (Group 1: 3.0+3.0 mg/kg)
[12] = Day 98, single SC dose day 1, 6.0 mg/kg (Group 1: 3.0+3.0 mg/kg)
[13] = Day 106, single SC dose day 1, 6.0 mg/kg (Group 1: 3.0+3.0 mg/kg)
[14] = Day 120, single SC dose day 1, 6.0 mg/kg (Group 1: 3.0+3.0 mg/kg)
[15] = Day 133, single SC dose day 1, 6.0 mg/kg (Group 1: 3.0+3.0 mg/kg)
[16] = Day 148, single SC dose day 1, 6.0 mg/kg (Group 1: 3.0+3.0 mg/kg)
[17] = Day 162, single SC dose day 1, 6.0 mg/kg (Group 1: 3.0+3.0 mg/kg)

Molecule | Avg cANGPTL3 normalized to pre-treatment and control (ANGPTL3; [1]) | Avg cANGPTL3 normalized to pre-treatment and control (ANGPTL3; [2]) | Avg cANGPTL3 normalized to pre-treatment and control (ANGPTL3; [3]) | cANGPTL3 knockdown (ANGPTL3; [3]) | Avg cANGPTL3 normalized to pre-treatment and control (ANGPTL3; [4]) | Avg cANGPTL3 normalized to pre-treatment and control (ANGPTL3; [5]) | Avg cANGPTL3 normalized to pre-treatment and control (ANGPTL3; [6]) | Avg cANGPTL3 normalized to pre-treatment and control (ANGPTL3; [7]) | Avg cANGPTL3 normalized to pre-treatment and control (ANGPTL3; [8]) | Avg cANGPTL3 normalized to pre-treatment and control (ANGPTL3; [9]) | Avg cANGPTL3 normalized to pre-treatment and control (ANGPTL3; [10]) | Avg cANGPTL3 normalized to pre-treatment and control (ANGPTL3; [11]) | Avg cANGPTL3 normalized to pre-treatment and control (ANGPTL3; [12]) | Avg cANGPTL3 normalized to pre-treatment and control (ANGPTL3; [13]) | cANGPTL3 knockdown (ANGPTL3; [13]) | Avg cANGPTL3 normalized to pre-treatment and control (ANGPTL3; [14]) | Avg cANGPTL3 normalized to pre-treatment and control (ANGPTL3; [15]) | Avg cFXII normalized to pre-treatment and control (FXII; [1]) | Avg cFXII normalized to pre-treatment and control (FXII; [2]) | Avg cFXII normalized to pre-treatment and control (FXII; [3]) | also measured
B1 | 0.442 | 0.362 | 0.339 | approximately 66% | 0.403 | 0.369 | 0.394 | 0.560 | 0.622 | 0.590 | 0.641 | 0.603 | 0.666 | 0.944 | no meaningful knockdown | 1.128 | 1.129 | 0.481 | 0.320 | 0.222 | cFXII knockdown (FXII; [3]): approximately 78%; Avg cFXII normalized to pre-treatment and control (FXII; [4]): 0.179; Avg cFXII normalized to pre-treatment and control (FXII; [5]): 0.224; Avg cFXII normalized to pre-treatment and control (FXII; [6]): 0.237; Avg cFXII normalized to pre-treatment and control (FXII; [7]): 0.130; Avg cFXII normalized to pre-treatment and control (FXII; [8]): 0.194; Avg cFXII normalized to pre-treatment and control (FXII; [9]): 0.184; Avg cFXII normalized to pre-treatment and control (FXII; [10]): 0.429; Avg cFXII normalized to pre-treatment and control (FXII; [11]): 0.491; Avg cFXII normalized to pre-treatment and control (FXII; [12]): 0.592; cFXII knockdown (FXII; [12]): approximately 41%; Avg cFXII normalized to pre-treatment and control (FXII; [13]): 0.520; Avg cFXII normalized to pre-treatment and control (FXII; [14]): 0.567; Avg cFXII normalized to pre-treatment and control (FXII; [15]): 0.784; Avg cFXII normalized to pre-treatment and control (FXII; [16]): 0.589; Avg cFXII normalized to pre-treatment and control (FXII; [17]): 0.728
B2 | 0.252 | 0.238 | 0.137 | ~86% | 0.161 | 0.186 | 0.164 | 0.212 | 0.245 | 0.352 | 0.328 | 0.354 | 0.425 | 0.565 | approximately 45% | 0.637 | 0.672 | 0.299 | 0.201 | 0.156 | cFXII knockdown (FXII; [3]): approximately 85%; Avg cFXII normalized to pre-treatment and control (FXII; [4]): 0.077; Avg cFXII normalized to pre-treatment and control (FXII; [5]): 0.058; Avg cFXII normalized to pre-treatment and control (FXII; [6]): 0.058; Avg cFXII normalized to pre-treatment and control (FXII; [7]): 0.032; Avg cFXII normalized to pre-treatment and control (FXII; [8]): 0.056; Avg cFXII normalized to pre-treatment and control (FXII; [9]): 0.038; Avg cFXII normalized to pre-treatment and control (FXII; [10]): 0.094; Avg cFXII normalized to pre-treatment and control (FXII; [11]): 0.109; Avg cFXII normalized to pre-treatment and control (FXII; [12]): 0.139; cFXII knockdown (FXII; [12]): approximately 86%; Avg cFXII normalized to pre-treatment and control (FXII; [13]): 0.158; Avg cFXII normalized to pre-treatment and control (FXII; [14]): 0.194; Avg cFXII normalized to pre-treatment and control (FXII; [15]): 0.213; Avg cFXII normalized to pre-treatment and control (FXII; [16]): 0.263; cFXII inhibition (FXII; Day 162, single SC dose day 1, 6.0 mg/kg): more than 70%; Avg cFXII normalized to pre-treatment and control (FXII; [17]): 0.285
B3 | 0.361 | 0.288 | 0.194 | approximately 81% | 0.261 | 0.246 | 0.272 | 0.327 | 0.456 | 0.548 | 0.521 | 0.505 | 0.490 | 0.777 and 0.770 | approximately 33% | 0.943 | 0.892 | 0.430 | 0.230 | 0.219 | cFXII knockdown (FXII; [3]): approximately 78%; Avg cFXII normalized to pre-treatment and control (FXII; [4]): 0.095; Avg cFXII normalized to pre-treatment and control (FXII; [5]): 0.126; Avg cFXII normalized to pre-treatment and control (FXII; [6]): 0.103; Avg cFXII normalized to pre-treatment and control (FXII; [7]): 0.104; Avg cFXII normalized to pre-treatment and control (FXII; [8]): 0.065; Avg cFXII normalized to pre-treatment and control (FXII; [9]): 0.093; Avg cFXII normalized to pre-treatment and control (FXII; [10]): 0.211; Avg cFXII normalized to pre-treatment and control (FXII; [11]): 0.230; Avg cFXII normalized to pre-treatment and control (FXII; [12]): 0.316; cFXII knockdown (FXII; [12]): approximately 69%; Avg cFXII normalized to pre-treatment and control (FXII; [13]): 0.316; Avg cFXII normalized to pre-treatment and control (FXII; [14]): 0.443; Avg cFXII normalized to pre-treatment and control (FXII; [15]): 0.536; Avg cFXII normalized to pre-treatment and control (FXII; [16]): 0.567; Avg cFXII normalized to pre-treatment and control (FXII; [17]): 0.468
